According to US20220119518A1 (KUMHO HT, published 2022):
Positions count from the first letter of the chain named.

B1: recombinant humanized anti-CD66c antibody Protein ID 3058 (Vk8 + VH11) (antibody, human IgG1, V domains shown)
VH: QVQLVQSGAEVKKPGASVKISCKASGYSFTDYTMHWVKQAPGQNLEWIGLINPFGGSTSYAQKFKGRVTMTRDTSTNTAYMELSRLRSDDTAVYYCVRGDPVRHYYALAYWGQGTLVTVSS
VL: DIQMTQSPSTLSASVGDRVTITCRASENVYGTLNWYQRKPGKAPKLLIYGATNLADGMPSRFSGSGSGTEYTLTISSLQPDDFATYYCQNVLSAPYTFGGGTKLEIK
notes: also called hu 3058; #86
B2: recombinant humanized anti-CD66c antibody Protein ID 3007 (Vk7 + VH6) (antibody, human IgG1, V domains shown)
VH: QVQLVQSGAEVKKPGASMKISCKASGYSFTDYTMNWVKQAPGQNLEWIGLINPFHGGTVSNQRFKVKATLTVDVSTNTAYMELSRLRSDDTAVYYCVRGDPVRHYYALAYWGQGTLVTVSS
VL: B1 VL with R24G, M58V
notes: also called hu 3007; #43
B3: recombinant humanized anti-CD66c antibody Protein ID 3043 (Vk8 + VH6) (antibody, V domains shown)
VH: B2 VH
VL: B1 VL
notes: also called hu 3043; #71
B4: recombinant humanized anti-CD66c antibody Protein ID 2938 (Vk5 + VH7) (antibody, human IgG1, V domains shown)
VH: B2 VH with K38R, N44G
VL: B1 VL with R24G, N34A, M58V, T69R
notes: also called hu 2938
B5: anti-CD66c chimeric antibody 8F5 (antibody, human IgG1, V domains shown)
VH: EVQLQQSGPELVKPGASMKISCKASGYSFTDYTMNWVKQSHGKNLEWIGLINPFHGGTVSNQRFKVKATLTVDVSSNTAYMELLSLTSDDSAVYYCVRGDPVRHYYALAYWGQGTSVTVSS
VL: DIQMTQSPASLSASVGETVTITCGASENVYGTLNWYQRKQGKSPQLLIYGATNLADGMSSRFSGSGSGRQYSLKISSLHPDDVATYYCQNVLSAPYTFGGGTKLEII
notes: also called chimeric 8F5; chi 8F5

Target: T1, Antigen CD66c (CEACAM6; Sino Biological, Inc.) (UniProt P40199 35-320)
T1 construct: Bought antigen, coated on the ELISA plate; construct not described; also called CECACAM6 (CD66c) antigen; CD66c antigen
T1 sequence (looked up): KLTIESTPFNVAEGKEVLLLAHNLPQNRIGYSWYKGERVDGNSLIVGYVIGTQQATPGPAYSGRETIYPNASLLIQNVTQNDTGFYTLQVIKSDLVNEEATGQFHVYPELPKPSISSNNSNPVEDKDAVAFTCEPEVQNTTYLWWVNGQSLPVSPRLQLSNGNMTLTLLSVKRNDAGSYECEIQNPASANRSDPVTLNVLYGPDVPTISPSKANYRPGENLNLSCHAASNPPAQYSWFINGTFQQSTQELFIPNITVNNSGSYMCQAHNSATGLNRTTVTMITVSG
Assay: ELISA, CEACAM6 coated 100 ng/well, antibody at 0.17 ng/ml
Experimental: (§1) Antigen CD66c (CEACAM6; Sino Biological, Inc.) and CEACAM1 antigen (Sino Biological, Inc.) were coated on a 96-well plate at a rate of 100 ng per well and then blocked. The primary antibody was diluted 3-fold from 10 ug/ml and bound at 37° C. for 1 hour. […] goat anti-Human Ig-HRP conjugate (Jackson ImmunoResearch) as a secondary antibody was diluted 1:10,000 and incubated at 37° C. for 30 minutes. The washing was carried out at three times between each step, and the TMB reaction was performed, stopped with 1N H₂SO₄ solution at the same amount of TMB solution (100 ul) and then OD value was measured at 450 nm.
(§2) As a result of the experiment, the binding affinities to CD66c antigen of the five kinds of recombinant humanized antibodies selected from among 96 kinds of recombinant humanized antibodies are shown in FIG. 4a, Table 12, FIG. 4b and Table 13. FIG. 4a and Table 12 show the binding capacity of the antibodies to CECACAM6 CD66c) antigen, and FIG. 4b and Table 13 are the results for the CEACAM1 (CD66a) antigen.

Row | Binder | OD 450 nm
1 | B1 | 0.37 OD 450 nm
2 | B2 | 0.53 OD 450 nm
3 | B3 | 0.41 OD 450 nm
4 | B4 | 0.3 OD 450 nm
5 | B5 | 0.4 OD 450 nm

Target: T1, Antigen CD66c (CEACAM6; Sino …)
Assay: ELISA, CEACAM6 coated 100 ng/well, antibody at 0.51 ng/ml
Experimental: as §1, §2

Row | Binder | OD 450 nm
6 | B1 | 0.38 OD 450 nm
7 | B2 | 0.64 OD 450 nm
8 | B3 | 0.49 OD 450 nm
9 | B4 | 0.36 OD 450 nm
10 | B5 | 0.41 OD 450 nm

Target: T2, CEACAM1 antigen (Sino Biological, Inc.) (UniProt P13688 35-428)
T2 construct: Bought antigen, coated on the ELISA plate; construct not described; also called CEACAM1 (CD66a) antigen; CD66a
T2 sequence (looked up): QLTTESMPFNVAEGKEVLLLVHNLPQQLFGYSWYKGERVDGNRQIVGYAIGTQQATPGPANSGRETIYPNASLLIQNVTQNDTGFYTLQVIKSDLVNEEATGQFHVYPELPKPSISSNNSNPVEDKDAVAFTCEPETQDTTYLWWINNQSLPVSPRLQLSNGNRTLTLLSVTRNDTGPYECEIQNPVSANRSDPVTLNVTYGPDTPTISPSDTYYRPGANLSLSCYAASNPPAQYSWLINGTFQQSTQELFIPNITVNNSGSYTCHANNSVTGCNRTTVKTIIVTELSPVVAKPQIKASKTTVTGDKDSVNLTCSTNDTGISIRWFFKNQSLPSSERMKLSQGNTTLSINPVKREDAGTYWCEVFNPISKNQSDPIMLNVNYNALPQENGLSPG
Assay: ELISA, CEACAM1 coated 100 ng/well, antibody at 13.72 ng/ml
Experimental: as §1

Row | Binder | OD 450 nm
11 | B1 | 0.05 OD 450 nm
12 | B2 | 0.46 OD 450 nm
13 | B3 | 0.43 OD 450 nm
14 | B4 | 0.06 OD 450 nm
15 | B5 | 0.51 OD 450 nm

Target: T2, CEACAM1 antigen (Sino Biological, Inc.)
Assay: ELISA, CEACAM1 coated 100 ng/well, antibody at 41.15 ng/ml
Experimental: as §1

Row | Binder | OD 450 nm
16 | B1 | 0.07 OD 450 nm
17 | B2 | 0.66 OD 450 nm
18 | B3 | 0.61 OD 450 nm
19 | B4 | 0.07 OD 450 nm
20 | B5 | 0.82 OD 450 nm

Target: T1, Antigen CD66c (CEACAM6; Sino …)
Assay: ELISA, CEACAM6 coated 100 ng/well, antibody at 370.37 ng/ml
Experimental: as §1, §2

Row | Binder | OD 450 nm
21 | B1 | 2.8 OD 450 nm
22 | B2 | 3.16 OD 450 nm
23 | B3 | 2.92 OD 450 nm
24 | B4 | 3.08 OD 450 nm
25 | B5 | 3.3 OD 450 nm

Target: T2, CEACAM1 antigen (Sino Biological, Inc.)
Assay: ELISA, CEACAM1 coated 100 ng/well, antibody at 370.37 ng/ml
Experimental: as §1

Row | Binder | OD 450 nm
26 | B1 | 0.12 OD 450 nm
27 | B2 | 0.92 OD 450 nm
28 | B3 | 0.8 OD 450 nm
29 | B4 | 0.14 OD 450 nm
30 | B5 | 1.13 OD 450 nm

Target: T1, Antigen CD66c (CEACAM6; Sino …)
Assay: ELISA, CEACAM6 coated 100 ng/well, antibody at 3333.33 ng/ml
Experimental: as §1, §2

Row | Binder | OD 450 nm
31 | B1 | 3.18 OD 450 nm
32 | B2 | 3.24 OD 450 nm
33 | B3 | 2.95 OD 450 nm
34 | B4 | 3.27 OD 450 nm
35 | B5 | 3.41 OD 450 nm

Target: T2, CEACAM1 antigen (Sino Biological, Inc.)
Assay: ELISA, CEACAM1 coated 100 ng/well, antibody at 1111.11 ng/ml
Experimental: as §1

Row | Binder | OD 450 nm
36 | B1 | 0.19 OD 450 nm
37 | B2 | 1.06 OD 450 nm
38 | B3 | 1.17 OD 450 nm
39 | B4 | 0.21 OD 450 nm
40 | B5 | 1.21 OD 450 nm

Target: T1, Antigen CD66c (CEACAM6; Sino …)
Assay: ELISA, CEACAM6 coated 100 ng/well, antibody at 10000.00 ng/ml
Experimental: as §1, §2

Row | Binder | OD 450 nm
41 | B1 | 2.87 OD 450 nm
42 | B2 | 3.37 OD 450 nm
43 | B3 | 2.73 OD 450 nm
44 | B4 | 3.43 OD 450 nm
45 | B5 | 3.17 OD 450 nm

Target: T2, CEACAM1 antigen (Sino Biological, Inc.)
Assay: ELISA, CEACAM1 coated 100 ng/well, antibody at 10000.00 ng/ml
Experimental: as §1

Row | Binder | OD 450 nm
46 | B1 | 0.42 OD 450 nm
47 | B2 | 1.01 OD 450 nm
48 | B3 | 0.91 OD 450 nm
49 | B4 | 0.32 OD 450 nm
50 | B5 | 1.21 OD 450 nm
